Measurements published in article doi:10.1101/2025.08.15.670619.

Molecular target: Full-length Synechococcus PCC 7335 nitric oxide synthase (syNOS) (Synechococcus sp. PCC 7335)
Assay: cryo-EM structure

stoichiometry N: 2
Substance: Full-length Synechococcus PCC 7335 nitric oxide synthase (syNOS) (enzyme)
